Measured values taken from patent US20140212446A1.

Biological target: CD64, high affinity human FcgammaRI receptor, expressed on K562 cells (K64 cells) (human)
Assay: flow cytometry of K64 cells loaded with FITC-labelled IgG2a for 1 h at 4 C, quantified with Immuno-Brite beads

- antibodies bound to each cell (antibodies bound to each cell): 2000 to 6000
Substance: IgG2a-FITC-labeled antibodies (antibody)
